Square brackets hold non-standard residues; d marks the D form. Ends that are not written are not given here. hArg = N=C(N)NCCCC[C@H](N)C(=O)O; Nle = CCCC[C@H](N)C(=O)O; Aib = CC(C)(N)C(=O)O
T1: wild-type human PTH/PTHrP receptor (hP1R-WT) (human, UniProt Q03431 27-593)
T1 sequence (looked up): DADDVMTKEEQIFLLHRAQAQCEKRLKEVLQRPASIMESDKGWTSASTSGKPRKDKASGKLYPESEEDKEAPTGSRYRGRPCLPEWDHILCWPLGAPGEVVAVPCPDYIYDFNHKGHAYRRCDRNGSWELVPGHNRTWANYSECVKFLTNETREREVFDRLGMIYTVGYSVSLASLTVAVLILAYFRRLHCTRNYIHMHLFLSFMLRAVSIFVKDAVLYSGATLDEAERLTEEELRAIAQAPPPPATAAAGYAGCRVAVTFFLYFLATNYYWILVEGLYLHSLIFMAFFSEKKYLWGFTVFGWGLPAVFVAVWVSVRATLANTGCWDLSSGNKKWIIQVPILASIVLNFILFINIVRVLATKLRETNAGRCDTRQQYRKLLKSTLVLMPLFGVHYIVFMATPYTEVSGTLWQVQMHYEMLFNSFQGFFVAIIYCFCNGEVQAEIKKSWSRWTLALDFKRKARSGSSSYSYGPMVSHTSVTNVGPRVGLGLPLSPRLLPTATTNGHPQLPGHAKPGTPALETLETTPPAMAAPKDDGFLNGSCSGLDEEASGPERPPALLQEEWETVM

B1: [Aib^1,3]PTH(1-9) (peptide)
peptide: [Aib]V[Aib]EIQLMH-NH2
modifications: N-terminus assumed
SMILES: CC[C@H](C)[C@H](NC(=O)[C@H](CCC(=O)O)NC(=O)C(C)(C)NC(=O)[C@@H](NC(=O)C(C)(C)N)C(C)C)C(=O)N[C@@H](CCC(N)=O)C(=O)N[C@@H](CC(C)C)C(=O)N[C@@H](CCSC)C(=O)N[C@@H](Cc1c[nH]cn1)C(N)=O
B2: [Aib^4,M]PTH(1-14) (peptide)
peptide: AVA[Aib]IQLMHQ[hArg]AKW-NH2
modifications: N-terminus assumed
SMILES: CC[C@H](C)[C@H](NC(=O)C(C)(C)NC(=O)[C@H](C)NC(=O)[C@@H](NC(=O)[C@H](C)N)C(C)C)C(=O)N[C@@H](CCC(N)=O)C(=O)N[C@@H](CC(C)C)C(=O)N[C@@H](CCSC)C(=O)N[C@@H](Cc1c[nH]cn1)C(=O)N[C@@H](CCC(N)=O)C(=O)N[C@@H](CCCCNC(=N)N)C(=O)N[C@@H](C)C(=O)N[C@@H](CCCCN)C(=O)N[C@@H](Cc1c[nH]c2ccccc12)C(N)=O
notes: Aib scan of [M]PTH(1-14); also called 625 Aib-4
B3: [Aib^9,M]PTH(1-14) (peptide)
peptide: AVAEIQLM[Aib]Q[hArg]AKW-NH2
modifications: N-terminus assumed
SMILES: CC[C@H](C)[C@H](NC(=O)[C@H](CCC(=O)O)NC(=O)[C@H](C)NC(=O)[C@@H](NC(=O)[C@H](C)N)C(C)C)C(=O)N[C@@H](CCC(N)=O)C(=O)N[C@@H](CC(C)C)C(=O)N[C@@H](CCSC)C(=O)NC(C)(C)C(=O)N[C@@H](CCC(N)=O)C(=O)N[C@@H](CCCCNC(=N)N)C(=O)N[C@@H](C)C(=O)N[C@@H](CCCCN)C(=O)N[C@@H](Cc1c[nH]c2ccccc12)C(N)=O
notes: Aib scan of [M]PTH(1-14); also called 630 Aib-9
B4: [Aib^10,M]PTH(1-14) (peptide)
peptide: AVAEIQLMH[Aib][hArg]AKW-NH2
modifications: N-terminus assumed
SMILES: CC[C@H](C)[C@H](NC(=O)[C@H](CCC(=O)O)NC(=O)[C@H](C)NC(=O)[C@@H](NC(=O)[C@H](C)N)C(C)C)C(=O)N[C@@H](CCC(N)=O)C(=O)N[C@@H](CC(C)C)C(=O)N[C@@H](CCSC)C(=O)N[C@@H](Cc1c[nH]cn1)C(=O)NC(C)(C)C(=O)N[C@@H](CCCCNC(=N)N)C(=O)N[C@@H](C)C(=O)N[C@@H](CCCCN)C(=O)N[C@@H](Cc1c[nH]c2ccccc12)C(N)=O
notes: Aib scan of [M]PTH(1-14); Aib replaces the Gln^10 of [M]; also called 631 Aib-10
B5: [Aib^2,M]PTH(1-14) (peptide)
peptide: A[Aib]AEIQLMHQ[hArg]AKW-NH2
modifications: N-terminus assumed
SMILES: CC[C@H](C)[C@H](NC(=O)[C@H](CCC(=O)O)NC(=O)[C@H](C)NC(=O)C(C)(C)NC(=O)[C@H](C)N)C(=O)N[C@@H](CCC(N)=O)C(=O)N[C@@H](CC(C)C)C(=O)N[C@@H](CCSC)C(=O)N[C@@H](Cc1c[nH]cn1)C(=O)N[C@@H](CCC(N)=O)C(=O)N[C@@H](CCCCNC(=N)N)C(=O)N[C@@H](C)C(=O)N[C@@H](CCCCN)C(=O)N[C@@H](Cc1c[nH]c2ccccc12)C(N)=O
notes: Aib scan of [M]PTH(1-14); also called 623 Aib-2
B6: [Aib^7,M]PTH(1-14) (peptide)
peptide: AVAEIQ[Aib]MHQ[hArg]AKW-NH2
modifications: N-terminus assumed
SMILES: CC[C@H](C)[C@H](NC(=O)[C@H](CCC(=O)O)NC(=O)[C@H](C)NC(=O)[C@@H](NC(=O)[C@H](C)N)C(C)C)C(=O)N[C@@H](CCC(N)=O)C(=O)NC(C)(C)C(=O)N[C@@H](CCSC)C(=O)N[C@@H](Cc1c[nH]cn1)C(=O)N[C@@H](CCC(N)=O)C(=O)N[C@@H](CCCCNC(=N)N)C(=O)N[C@@H](C)C(=O)N[C@@H](CCCCN)C(=O)N[C@@H](Cc1c[nH]c2ccccc12)C(N)=O
notes: Aib scan of [M]PTH(1-14); also called 628 Aib-7
B7: [Ala^3,12,Nle^8,Gln^10,Har^11,Trp^14,Arg^19,Tyr^21]PTH(1-21)amide (peptide)
peptide: AVAEIQL[Nle]HQ[hArg]AKWLASVRRY-NH2
modifications: N-terminus assumed
SMILES: CCCC[C@H](NC(=O)[C@H](CC(C)C)NC(=O)[C@H](CCC(N)=O)NC(=O)[C@@H](NC(=O)[C@H](CCC(=O)O)NC(=O)[C@H](C)NC(=O)[C@@H](NC(=O)[C@H](C)N)C(C)C)[C@@H](C)CC)C(=O)N[C@@H](Cc1c[nH]cn1)C(=O)N[C@@H](CCC(N)=O)C(=O)N[C@@H](CCCCNC(=N)N)C(=O)N[C@@H](C)C(=O)N[C@@H](CCCCN)C(=O)N[C@@H](Cc1c[nH]c2ccccc12)C(=O)N[C@@H](CC(C)C)C(=O)N[C@@H](C)C(=O)N[C@@H](CO)C(=O)N[C@H](C(=O)N[C@@H](CCCNC(=N)N)C(=O)N[C@@H](CCCNC(=N)N)C(=O)N[C@@H](Cc1ccc(O)cc1)C(N)=O)C(C)C
notes: unlabeled peptide; also called [M]PTH(1-21); 608 [M]PTH(1-21)
B8: [Aib^6,M]PTH(1-14) (peptide)
peptide: AVAEI[Aib]LMHQ[hArg]AKW-NH2
modifications: N-terminus assumed
SMILES: CC[C@H](C)[C@H](NC(=O)[C@H](CCC(=O)O)NC(=O)[C@H](C)NC(=O)[C@@H](NC(=O)[C@H](C)N)C(C)C)C(=O)NC(C)(C)C(=O)N[C@@H](CC(C)C)C(=O)N[C@@H](CCSC)C(=O)N[C@@H](Cc1c[nH]cn1)C(=O)N[C@@H](CCC(N)=O)C(=O)N[C@@H](CCCCNC(=N)N)C(=O)N[C@@H](C)C(=O)N[C@@H](CCCCN)C(=O)N[C@@H](Cc1c[nH]c2ccccc12)C(N)=O
notes: Aib scan of [M]PTH(1-14); also called 627 Aib-6
B9: [Aib^8,M]PTH(1-14) (peptide)
peptide: AVAEIQL[Aib]HQ[hArg]AKW-NH2
modifications: N-terminus assumed
SMILES: CC[C@H](C)[C@H](NC(=O)[C@H](CCC(=O)O)NC(=O)[C@H](C)NC(=O)[C@@H](NC(=O)[C@H](C)N)C(C)C)C(=O)N[C@@H](CCC(N)=O)C(=O)N[C@@H](CC(C)C)C(=O)NC(C)(C)C(=O)N[C@@H](Cc1c[nH]cn1)C(=O)N[C@@H](CCC(N)=O)C(=O)N[C@@H](CCCCNC(=N)N)C(=O)N[C@@H](C)C(=O)N[C@@H](CCCCN)C(=O)N[C@@H](Cc1c[nH]c2ccccc12)C(N)=O
notes: Aib scan of [M]PTH(1-14); also called 629 Aib-8

Assays:
[1] = biological target: T1, wild-type human PTH/PTHrP receptor …; experiment: cell-based or functional assay
[2] = biological target: T1, wild-type human PTH/PTHrP receptor …; experiment: competition binding, 125I-[M]PTH(1-21) tracer, HKRK-B28 cells, 4 h at 4 C
Procedure: (§1) Competition Binding. Binding reactions were performed with HKRK-B28 cells or in COS-7 cells in 24-well plates. The cells were rinsed with 0.5 mL of binding buffer, and then treated successively with 100 μL binding buffer, 100 μL of binding buffer containing various amounts of unlabeled competitor ligand, and 100 μL of binding buffer containing ca. 100,000 cpm of ¹²⁵I-[M]PTH(1-21) or ¹²⁵I-[Aib^{1,3},M]PTH(1-21)} (ca. 26 fmol; final volume=300 μL). Incubations were 4 to 6 h at 4° C., at which time near equilibrium conditions were attained. Cells were then placed on ice, the binding medium was removed, and the monolayer was rinsed three times with 0.5 mL of cold binding buffer. The cells were subsequently lysed with 0.5 mL […] NaOH and counted for radioactivity. For each tracer and in each experiment, the non-specific binding was determined as the radioactivity that bound in the presence of the same unlabeled peptide at a concentration of 1 μM, and was ˜1% of total radioactivity added for each tracer. The maximum specific binding (B₀) was the total radioactivity bound in the absence of competing ligand, corrected for nonspecific binding, and for each tracer, ranged from 8% to 20% of the total radioactivity added. Nonlinear regression was used to calculate binding IC₅₀ values (see below). Scatchard transformations of homologous competition binding data derived from studies with 26 fmol of ¹²⁵I-[Aib^{1,3},M]PTH(1-21) were employed for estimations of apparent equilibrium dissociation constant (kDapps) and total number of ligand binding sites (Bₘₐₓ), assuming a single class of binding sites and equal affinities of the iodinated and non iodinated ligand.
Peptides PTH(1-34) ([Nle^{8,21}, Tyr³⁴]PTH(1-34)amide), [M]PTH(1-14) (M = Ala^{3,12}, Gln¹⁰, Har¹¹, Trp¹⁴), and [M]PTH(1-14 analogs, or C-terminally truncated derivatives thereof, containing α-aminoisobutyric acid (Aib) substitutions at the indicated positions were functionally evaluated in HKRK-B28 cells. “M” in [Aib^{1,3}, M]PTH(1-21) = Nle⁸, Gln¹⁰, Har¹¹, Ala¹², Trp¹⁴, Arg¹⁹ and Tyr²¹. The basal cAMP values (not subtracted) were 4.0 ± 0.1 pmole/well (n = 10). Peptides were based on the rat PTH sequence and were carboxy-amidated. Competition binding analyses were performed with ¹²⁵I-[M]PTH(1-21 )amide (Ala^{1,3}) as tracer for 4 h at 4° C. Data are means (±S.E.M.) Of the number of experiments indiated (n).

[3] = biological target: T1, wild-type human PTH/PTHrP receptor …; experiment: competition binding, 125I-[M]PTH(1-21) tracer, HKRK-B28 cells
Procedure: as §1, with “Cells” for “Competition Binding. Binding reactions were performed with HKRK-B28 cells or in COS-7 cells in 24-well plates. The cells were rinsed with 0.5 mL of binding buffer, and then treated successively with 100 μL binding buffer, 100 μL of binding buffer containing various amounts of unlabeled competitor ligand, and 100 μL of binding buffer containing ca. 100,000 cpm of ¹²⁵I-[M]PTH(1-21) or ¹²⁵I-[Aib^{1,3},M]PTH(1-21)} (ca. 26 fmol; final volume=300 μL). Incubations were 4 to 6 h at 4° C., at which time near equilibrium conditions were attained. Cells”
Relative to the apparent binding affinity of [M]PTH(1-14), most of the Aib substitutions reduced affinity, in accordance with the corresponding effects on cAMP-signaling potency (Table 1).

Row | Binder | cAMP EC50 [1] [µM] | cAMP EMax(obs.) [1] [pmole/well] | IC50 [2] [µM] | fold reduction in affinity relative to [M]PTH(1-14) [3] [fold] | fold improvement in affinity relative to [M]PTH(1-14) [3] [fold]
1 | B1 | > 10 | 10 |  |  | 
2 | B2 | 17 | 221 | 148 | > 10 | 
3 | B3 | 710 | 51 |  | > 10 | 
4 | B4 | 3 | 214 | 9.1 |  | 1.4
5 | B5 | 47 | 168 | 50 |  | 
6 | B6 | 2.6 | 275 | 490 | > 10 | 
7 | B7 |  |  | 0.053 |  | 
8 | B8 | 230 | 116 | 31 | ~3 | 
9 | B9 | 1500 | 34 |  | > 10 | 
